Molecular target: p150^Glued subunit of dynactin (endogenous in melanophore extracts) (Xenopus laevis (endogenous in melanophores)) (UniProt Q6PCJ1)
Assay: co-IP

Sequence of UniProt Q6PCJ1 (Q6PCJ1 whole entry): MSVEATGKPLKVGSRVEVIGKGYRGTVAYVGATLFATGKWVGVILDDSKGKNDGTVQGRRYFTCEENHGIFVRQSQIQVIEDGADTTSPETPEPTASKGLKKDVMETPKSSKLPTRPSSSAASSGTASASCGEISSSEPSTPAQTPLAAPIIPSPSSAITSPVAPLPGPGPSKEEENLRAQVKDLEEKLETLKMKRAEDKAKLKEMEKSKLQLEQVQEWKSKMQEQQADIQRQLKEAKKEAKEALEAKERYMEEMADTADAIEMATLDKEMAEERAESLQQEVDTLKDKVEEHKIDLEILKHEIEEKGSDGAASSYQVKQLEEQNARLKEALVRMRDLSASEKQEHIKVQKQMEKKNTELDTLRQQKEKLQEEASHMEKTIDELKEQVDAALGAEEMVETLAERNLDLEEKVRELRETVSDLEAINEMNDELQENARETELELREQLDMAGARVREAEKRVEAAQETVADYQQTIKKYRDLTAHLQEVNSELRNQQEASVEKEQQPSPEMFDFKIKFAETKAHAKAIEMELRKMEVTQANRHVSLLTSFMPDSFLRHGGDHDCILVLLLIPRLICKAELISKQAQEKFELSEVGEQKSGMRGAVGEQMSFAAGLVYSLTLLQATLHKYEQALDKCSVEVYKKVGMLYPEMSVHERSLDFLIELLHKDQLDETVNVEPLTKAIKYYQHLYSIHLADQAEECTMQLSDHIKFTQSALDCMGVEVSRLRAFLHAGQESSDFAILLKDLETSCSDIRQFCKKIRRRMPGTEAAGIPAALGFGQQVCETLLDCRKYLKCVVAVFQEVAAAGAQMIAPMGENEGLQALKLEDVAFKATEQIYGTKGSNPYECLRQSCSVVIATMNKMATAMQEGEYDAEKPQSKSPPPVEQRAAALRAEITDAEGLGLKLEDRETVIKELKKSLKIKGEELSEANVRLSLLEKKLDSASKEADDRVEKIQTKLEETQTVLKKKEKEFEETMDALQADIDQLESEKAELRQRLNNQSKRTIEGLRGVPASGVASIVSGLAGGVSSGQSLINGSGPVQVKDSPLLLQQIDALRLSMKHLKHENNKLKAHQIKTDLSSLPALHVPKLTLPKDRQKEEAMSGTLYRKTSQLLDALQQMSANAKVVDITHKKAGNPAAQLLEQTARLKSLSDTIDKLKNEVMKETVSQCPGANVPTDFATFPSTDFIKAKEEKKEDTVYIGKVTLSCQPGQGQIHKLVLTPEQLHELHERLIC

percent of the total pool co-precipitated: 1%
Substance: kinesin II (Xenopus, endogenous in melanophore extracts) (complex)

Source: paper PMC2172679
